Experimental data as given in the DeepSol protein solubility set.

test: soluble on expression in E. coli; label from the status in PepcDB or PDB records

Sequence	soluble on expression in E. coli
MEKDIKRQIQILEIITSEEKWFTTIEISKILRCCNKTIMKDISFIKDFLPEDWHIKIKKGKGVRIYLPYNKHRNEITFLLFRESLTFRILQHLFERETKTIATLAERLYIQVPSILPALKRVENYLKKFGLKLRKKPLRLEGDEVRIMIMYLDLYLKSYNDTEWPFEKLKKEVIFQYLGTLEESLGISLHVVSKRHLSFFIAILLKRKQQGYKVQLNRKFLYFNTETPDYVKIGRIFEKLEREFGVSLTVQDKILLTISIKSSKYVYKDINKEKEESVQYFKEGNLSIYELVKDFINSLEEKLKVDLISDEEFIFALVDYFKRTIYHLQYLCMFERPQKQTIQYMQTEHSETFSAVKEVYTEFVKKNEIADYVSVEEIAKVTMYIEASRLRYTSNYKKVLLVTGESESWAEYLAATLAKRFGDKIQISTVFFAKKSDHDVNADFIISTIPLDLGSTPIICINSIPTERDYTNIQYYLDLQDG	not soluble
MFQMRLNLVIELRDAPGQLVSVLEPLGSTGVNIVTVIHERDREYGPVVPVQLTVEGDRETLDAAIGRLQEQGVNIIEMDGAPLREKFTTILIGDIAEGDLQETVEAVNSVQGASVLDLSLRMSEGRSAARITFEAEHGSRDEVLRRINEAAMERNLLLVSEV	not soluble
MQDYMQHLPHMQEIKSEILNKVLTQVQSYDESQFSAKDVKNALNQTHLSIEHLKALLSSAAEDFIEELAFKSAKVKQKYFGNSISLFTPLYLSNYCNSKCVYCGFQKGNKIARAKLNEAEIHEEMQAIAKSGLEEILMLTGEGREFASVEYIANACKIAREYFKVVGVEIYPMNEDEYKILHEKGCDYVTVFQETYNPLKYSKIHLAGEKRIFPYRFNAQERALKAGMRGVAFAALLGIDDFRKDALATALHAHFLQQAYSHAEISISVPRLRPIINNAKIHPKDVSEKRLLQVLCAYRLFLPFAGITISSRERIGFRDEVIKLGATKMSAGVSVGIGEHKGEKKGDEQFEISDDRSVDEILAMLKRSNLQAVMSDSIYVG	not soluble
MGSDKIHHHHHHMSQTLLPPGWVEKLCDPYAVLGISVIADDRQIFKRYHTLAKLLHPDRHAKNCNPDQKLATAIFSHLINPAYQQLKHRQKRLIAIAMLRSDARVSEQKPLSSQSAIAQEIMKMSTPEAELFYEEAIACYAEAQYKSLDQFYQVTQQITILNLVYLRLHKPDLFLPQKAVAIIPEVEVNPVELTLTDVKPVLTNYAQRHYQRAIEYVRLGKWVIAVQELRDAIKLEPNNSDYYALLGLVHLKQKFMGMARVYICQALKLNPQNSLALKYAPELKIKLGENTNPKSMAKAVSIAALLSRFTQRKGSQVKC	not soluble
MQDLICYKKMPQWNSQTLPAAFQEKHNTQEGTWAKLTVLKGEMTFSMLTEDGDTLETFHFSEQNQPPFVEPQAWHRIVSFSDDLECQLSFFCSAEDFYHKKYGLTQTHSEVINAVQHIKPGKTLDLGCGGGRNSLYLNLRGFDVTACDKHEQSIDSLNNIIQSEALENIRAGVYNINLAEIKEQYDFILSTVVLMFLERDRIPHIISNMQGSTVDGGYNLIIAAMSTEDCPCPMPFSFTFKEDELKNYYADWEILKYNEDMGELHKTDAQGNRIKLRFATLLARKPLEHHHHHH	soluble
MSLIYLHGFDSNSPGNHEKVLQLQFIDPDVRLVSYSTRHPKHDMQHLLKEVDKMLQLNVDERPLICGVGLGGYWAERIGFLCDIRQVVFNPNLFPYENMEGKIDRPEEYADIATKCVTNFREKNRDRCLVILSRHDEALDSQRSAQALHPFYEIVWDEEQTHKFKNISPYLQRIKAFKTLGEGHHHHHH	not soluble
SGGGGGVLWDTPSPKEYKKGDTTTGVYRIMTRGLLGSYQAGAGVMVEGVFHTLWHTTKGAALMSGEGRLDPYWGSVKEDRLCYGGPWKLQHKWNGQDEVQMIVVEPGKNVKNVRTKPGVFKTPEGEIGAVTLDFPTGTSGSPIVDKNGDVIGLYGNGVIMPNGSYISAIVQGKRMDEPIPAGFEPEMLGSRSHHHHHH	soluble
MKSALSDLAFFGGPAAFDQPLLVGRPNRIDRARLYERLDRALDSQWLSNGGPLVREFEERVAGLAGVRHAVATCNATAGLQLLAHAAGLTGEVIMPSMTFAATPHALRWIGLTPVFADIDPDTGNLDPDQVAAAVTPRTSAVVGVHLWGRPCAADQLRKVADEHGLRLYFDAAHALGCAVDGRPAGSLGDAEVFSFHATKAVNAFEGGAVVTDDADLAARIRALHNFGFDLPGGSPAGGTNAKMSEAAAAMGLTSLDAFPEVIDRNRRNHAAYREHLADLPGVLVADHDRHGLNNHQYVIVEIDEATTGIHRDLVMEVLKAEGVHTRAYFSPGCHELEPYRGQPHAPLPHTERLAARVLSLPTGTAIGDDDIRRVADLLRLCATRGRELTARHRDTAPAPLAAPQTSTPTIGRSRGLEHHHHHH	soluble
VSVITSEMKMELRMEGAVNGHKFVITGKGSGQPFEGIQNMDLTVIEGGPLPFAFDILTTVFDYGNRVFVKYPEEIVDYFKQSFPEGYSWERSMSYEDGGICLATNNITMKKDGSNCFVYEIRFDGVNFPANGPVMQRKTVKWEPSTEKMYVRDGVLKGDVNMALLLQGGGHYRCDFRTTYKAKKVVQLPDYHFVDHRIEITSHDKDYNKVKLYEHAKAHSGLPRLAK	soluble
MSLKSYGAVKRISGKNRYVLSENIAKQMGSYDKAIVVTGRVFQDALAIAPYAAAHGYPILLTEKDKLPDYDLPKQVIIIGSSFSVSDSVENQIKKTSEGHHHHHH	soluble
ASSPANKVYQDRFESMYSKIKDPANGYFSEQGIPYHSIETLMVEAPDYGHVTTSQAMSYYMWLEAMHGRFSGDFTGFDKSWSVTEQYLIPTEKDQPNTSMSRYDANKPATYAPEFQDPSKYPSPLDTSQPVGRDPINSQLTSAYGTSMLYGMHWILDVDNWYGFGARADGTSKPSYINTFQRGEQESTWETIPQPCWDEHKFGGQYGFLDLFTKDTGTPAKQFKYTNAPDADARAVQATYWADQWAKEQGKSVSTSVGKATKMGDYLRYSFFDKYFRKIGQPSQAGTGYDAAHYLLSWYYAWGGGIDSTWSWIIGSSHNHFGYQNPFAAWVLSTDANFKPKSSNGASDWAKSLDRQLEFYQWLQSAEGAIAGGATNSWNGRYEAVPSGTSTFYGMGYVENPVYADPGSNTWFGMQVWSMQRVAELYYKTGDARAKKLLDKWAKWINGEIKFNADGTFQIPSTIDWEGQPDTWNPTQGYTGNANLHVKVVNYGTDLGCASSLANTLTYYAAKSGDETSRQNAQKLLDAMWNNYSDSKGISTVEQRGDYHRFLDQEVFVPAGWTGKMPNGDVIKSGVKFIDIRSKYKQDPEWQTMVAALQAGQVPTQRLHRFWAQSEFAVANGVYAILFPD	soluble
MNRIFCALMRADAARFREVVFPCALLQNHPHQFPHVLARLEFFAPPDQRNCLLLPRVLVKRSLAAKEPSKVNFLSVNLRKELHEEAKSSKKTNLK	not soluble
MITELTNIHLIKGNLQANSKNEVFAELAQMLLENNRISNKEDFLNDIEIRERLSVTSMDGIAYPHSKSKAVTKPAIAVGVKHEGIEYGDEEGIKPTVFFMIASPDNGADHHIYVLQELFGKFSEEFIEDIHNAKNEHQILNISIQS	not soluble
MGHHHHHHSHMTLQALSEANRRLWMEAMDGKEPIYHSPITKQQEMELNEVGFKFVRKCINIIETKGIKTEGLYRTVGSNIQVQKLLNAFFDPKCPGDVDFHNSDWDIKTITSSLKFYLRNLSEPVMTYRLHKELVSAAKSDNLDYRLGAIHSLVYKLPEKNREMLELLIRHLVNVCEHSKENLMTPSNMGVIFGPTLMRAQEDTVAAMMNIKFQNIVVEILIEHFGKIYLGPPEESAAPPVPPPRVTARRHKP	not soluble
MCMTNSMSDALKTLEVFRPEVEEIDEREVKLSVAPDRVIAVLETLKSLGYSHLSLMTCIDWIEDSQFELVYILFSWKDGGKFIVTTRIDRNNPQFVTVKEIWPVARFYEREIHEFFGVKFSGNEDMKPLFLELWDDKPPLRKDFDPLEYSRRKFPGREYQKDVIDEAKKIFRGEING	soluble
GPGSMAETTIGFRCQDFVLVAAAGLNAFYYIKITDTEDKITELDSHKVVACAGENGPRTHFVEYVKCNMALKKMREHGRMISTHATASFMRNTLAGALRSRDGLYPVNCLLAGFDVPASAEDDVATGAHLYYLDYLGTLQEVPYGCHGYGAPFVTAMLDRMWRPNLTAQEGVELMQKCCDEVKKRVVVSNNTFICKAVTKDGVERVQSVS	soluble
MGSDKIHHHHHHAQTPVEKGLKSINRQAAEAYIGFLADDELQGREAGFHGSRVAARYIASLLKEMGIRPLGESYYQPFDAYRKERQQKGRLEVHPDSIAKLKQVVHQKLSMNNVLGMIPGKKTNEYVIVGAHFDHLGIDPALDGDQIYNGADDNASGVSAVLQIAKAFVVSGQQPERNVIFAFWDGEEKGLLGSKYFVQECPFINQVKGYLNFDMIGRNNQPQNPKHVVYFYTEANPAFGRWLKEDIKKYGLQLEPNYRPWDKPVGGSDNGSFAKAGIPIIWYHTDGHPDYHQPSDHADRLNWDKVVEISKASFLNVWNLANEKDY	not soluble
MRYFINIYVFRIKKILVLSVVNHISMDNPFSKFTNSRTIQADLSLLEENYIPDSFPHREKQINDMVTILSSIMRNSRPSNIIVYGKTGTGKTSTTKYVTRMLQEATSNVEVIYVNCEIYDSPYSILVYVANFAGGEKIPELGWPVDRIYREAVDRINGTGKFFVIVLDEMDRLIKKSGGDSLYVLLKLMTDVENVKVSMIGITNDTTLLENLDSRIKSRLNQESIVFPPYNATEIRDIIASRLEKVFGPGVVDDTAINLCAAIGAQEHGDARKAIDLMRIAIEIAIRENRLKVTEKEVYEARDKYEMNVMHEAINTLPIHSKIVLLSAIVTQEIEPNSVITGEIYENYRRICEDLGFTPLTPRRISDLLTELSDYGLIVVDERNMGKYGRTRGFSVVKEIETIKKYLMEDENLSMFKTSKMTKQARFDS	not soluble
MTAAIAAPAYDAIVIGSGIGGLVTATQLAAKGAKVLVLERYLIPGGSAGWFEREGYRFDFGASIIFGFGDPGTTNLLTPPLADVGQALETIPDPVQIHYHLPNQLDLKVHRDYEAFLQELIAQFPQEAEGIRRFYDECWQVFNCLNAMPLLSLEEPKYLFNVFLQHPLACLGLVKYLPQNVGDIARRYIRNPDLLKFIDMECYCWSVVPATMTPMINAGMVFSDRHYGGINYPKGGVGRIAEKLVAGLEAKGSSIRYKARVTRILTEKGRAIGVELADGEKLYAKRIISNATRWNTFGELLPPQQEPAQEQRWQQRYRQSPSFLSLHLGVKADLLPAGTECHHILLENWDELEVEQGTIFVSIPTLLDPSLAPPDRHIIHTFTPSWLGEWDNLSPSEYRDRKAAAAAKLIQRLEAIFPGLSSAIDYQEVGTPRTHRRFLGRQNGTYGPIPRRKLAGLLGMPFNRTAIPGLYCVGDSTFPGQGLNAVAFSGYACGHRVAADLGLVLEHHHHHH	not soluble
MSLKLTKKVGYAGRVITERGLEELEKANISYRLGSIYSNILEKTISANYRFGYVVINRCQVYADFNDVLKIIKSVYESGLAVGDRVGIIDREKFVEINTLCSLNFDNILLQNGIFPLHVCAGVVKYEDGKPVEFKEIIDYKSTSIDPLRAFIEKKETDVMGIIENGEGYLPANFRYFGVEFLERFETILEIDELKCIISYGTENVLGLDVGDDKVGVALIGGLTPIAPFVENNYCVEICPMSSIVRLESLHKLKKNPRDIVTKKANIRIKTALSKMFNAMAKVTYDIDEADGDVIVNTAFIDKKYLDEAFDILKEAYKKGLGISDRFGIVEENDRIKIQTICAVTLDGIFLRNSVPLIPKYGGILEITEDKERFIDIIGYDGSSLDPHEVFFNFVDCEKTFLAGFREVHRVAREKLEEVLKKLNWNGIKAIGEPNNELYGIGVNKDMCGVVTMGGINPLVLLKENEIPIELKAMHEVVRFSDLKSYKEIEGHHHHHH	soluble
